Reference: patent US20260266848A1, “COMPOSITIONS AND METHODS FOR DIAGNOSING AND TREATING DYSTONIA” (Duke University, priority 2023, published 2026)

B1: Atg7 (protein, UniProt Q9D906 1-698, looked up)
Ubiquitin-like …: MGDPGLAKLQFAPFNSALDVGFWHELTQKKLNEYRLDEAPKDIKGYYYNGDSAGLPTRLTLEFSAFDMSASTPAHCCPAMGTLHNTNTLEAFKTADKKLLLEQSANEIWEAIKSGAALENPMLLNKFLLLTFADLKKYHFYYWFCCPALCLPESIPLIRGPVSLDQRLSPKQIQALEHAYDDLCRAEGVTALPYFLFKYDDDTVLVSLLKHYSDFFQGQRTKITVGVYDPCNLAQYPGWPLRNFLVLAAHRWSGSFQSVEVLCFRDRTMQGARDVTHSIIFEVKLPEMAFSPDCPKAVGWEKNQKGGMGPRMVNLSGCMDPKRLAESSVDLNLKLMCWRLVPTLDLDKVVSVKCLLLGAGTLGCNVARTLMGWGVRHVTFVDNAKISYSNPVRQPLYEFEDCLGGGKPKALAAAERLQKIFPGVNARGFNMSIPMPGHPVNFSDVTMEQARRDVEQLEQLIDNHDVIFLLMDTRESRWLPTVIAASKRKLVINAALGFDTFVVMRHGLKKPKQQGAGDLCPSHLVAPADLGSSLFANIPGYKLGCYFCNDVVAPGDSTRDRTLDQQCTVSRPGLAVIAGALAVELMVSVLQHPEGGYAIASSSDDRMNEPPTSLGLVPHQIRGFLSRFDNVLPVSLAFDKCTACSPKVLDQYEREGFTFLAKVFNSSHSFLEDLTGLTLLHQETQAAEIWDMSDEETV
B2: Adamts5 (protein, UniProt Q9R001 262-930, looked up)
A disintegrin and …: SISRARQVELLLVADSSMARMYGRGLQHYLLTLASIANRLYSHASIENHIRLAVVKVVVLTDKDTSLEVSKNAATTLKNFCKWQHQHNQLGDDHEEHYDAAILFTREDLCGHHSCDTLGMADVGTICSPERSCAVIEDDGLHAAFTVAHEIGHLLGLSHDDSKFCEENFGTTEDKRLMSSILTSIDASKPWSKCTSATITEFLDDGHGNCLLDLPRKQILGPEELPGQTYDATQQCNLTFGPEYSVCPGMDVCARLWCAVVRQGQMVCLTKKLPAVEGTPCGKGRVCLQGKCVDKTKKKYYSTSSHGNWGSWGPWGQCSRSCGGGVQFAYRHCNNPAPRNSGRYCTGKRAIYRSCSVTPCPPNGKSFRHEQCEAKNGYQSDAKGVKTFVEWVPKYAGVLPADVCKLTCRAKGTGYYVVFSPKVTDGTECRPYSNSVCVRGRCVRTGCDGIIGSKLQYDKCGVCGGDNSSCTKIIGTFNKKSKGYTDVVRIPEGATHIKVRQFKAKDQTRFTAYLALKKKTGEYLINGKYMISTSETIIDINGTVMNYSGWSHRDDFLHGMGYSATKEILIVQILATDPTKALDVRYSFFVPKKTTQKVNSVISHGSNKVGPHSTQLQWVTGPWLACSRTCDTGWHTRTVQCQDGNRKLAKGCLLSQRPSAFKQCLLKKC
B3: Pdia3 (protein, UniProt P27773 25-505, looked up)
Protein disulfide-isomerase A3: SDVLELTDENFESRVSDTGSAGLMLVEFFAPWCGHCKRLAPEYEAAATRLKGIVPLAKVDCTANTNTCNKYGVSGYPTLKIFRDGEEAGAYDGPRTADGIVSHLKKQAGPASVPLRTEEEFKKFISDKDASVVGFFRDLFSDGHSEFLKAASNLRDNYRFAHTNIESLVKEYDDNGEGITIFRPLHLANKFEDKTVAYTEKKMTSGKIKKFIQDSIFGLCPHMTEDNKDLIQGKDLLTAYYDVDYEKNAKGSNYWRNRVMMVAKKFLDAGHKLNFAVASRKTFSHELSDFGLESTTGEVPVVAIRTAKGEKFVMQEEFSRDGKALEQFLQEYFDGNLKRYLKSEPIPESNEGPVKVVVAENFDDIVNEEDKDVLIEFYAPWCGHCKNLEPKYKELGEKLSKDPNIVIAKMDATANDVPSPYEVKGFPTIYFSPANKKLTPKKYEGGRELNDFISYLQREATNPPIIQEEKPKKKKKAQEDL
B4: Cyb5r3 (protein, UniProt Q9DCN2 2-301, looked up)
NADH-cytochrome b5 reductase 3: GAQLSTLSHVVLSPVWFIYSLFMKLFQRSTPAITLENPDIKYPLRLIDKEVISPDTRRFRFALPSPQHILGLPIGQHIYLSTRIDGNLVIRPYTPVSSDDDKGFVDLVVKVYFKDTHPKFPAGGKMSQYLENMKIGDTIEFRGPNGLLVYQGKGKFAIRADKKSNPVVRTVKSVGMIAGGTGITPMLQVIRAVLKDPNDHTVCYLLFANQSEKDILLRPELEELRNEHSARFKLWYTVDKAPDAWDYSQGFVNEEMIRDHLPTPGEEPLILMCGPPPMIQFACLPNLERVGHPKERCFTF
B5: Fh (protein, UniProt P97807 42-507, looked up)
Fumarate hydratase, …: ASQNSFRVEFDTFGELKVPTDKYYGAQTVRSTMNFKIGGATERMPIPVIQAFGILKRAAAEVNQEYGLDPKIASAIMKAADEVAEGKLNDHFPLVVWQTGSGTQTNMNVNEVISNRAIEMLGGELGSKKPVHPNDHVNKSQSSNDTFPTAMHIAAAVEVHKVLLPGLQKLHDALSAKSKEFAQVIKIGRTHTQDAVPLTLGQEFSGYVQQVQYAMVRIKAAMPRIYELAAGGTAVGTGLNTRIGFAEKVAAKVAALTGLPFVTAPNKFEALAAHDALVELSGAMNTAACSLMKIANDIRFLGSGPRSGLGELILPENEPGSSIMPGKVNPTQCEAMTMVAAQVMGNHVAVTVGGSNGHFELNVFKPMMIKNVLHSARLLGDASVSFTDNCVVGIQANTERINKLMNESLMLVTALNPHIGYDKAAKIAKTAHKNGSTLKETAIELGYLTAEQFDEWVKPKDMLGPK
B6: Dbi (protein, UniProt P31786 2-87, looked up)
Acyl-CoA-binding protein: SQAEFDKAAEEVKRLKTQPTDEEMLFIYSHFKQATVGDVNTDRPGLLDLKGKAKWDSWNKLKGTSKESAMKTYVEKVDELKKKYGI
B7: Psmd4 (protein, UniProt O35226 1-376, looked up)
26S proteasome non-ATPase …: MVLESTMVCVDNSEYMRNGDFLPTRLQAQQDAVNIVCHSKTRSNPENNVGLITLANDCEVLTTLTPDTGRILSKLHTVQPKGKITFCTGIRVAHLALKHRQGKNHKMRIIAFVGSPVEDNEKDLVKLAKRLKKEKVNVDIINFGEEEVNTEKLTAFVNTLNGKDGTGSHLVTVPPGPSLADALISSPILAGEGGAMLGLGASDFEFGVDPSADPELALALRVSMEEQRQRQEEEARRAAAASAAEAGIATPGTEDSDDALLKMTINQQEFGRPGLPDLSSMTEEEQIAYAMQMSLQGTEFSQESADMDASSAMDTSDPVKEEDDYDVMQDPEFLQSVLENLPGVDPNNAAIRSVMGALASQATKDGKNDKKEEEKK
B8: Alad (protein, UniProt P10518 1-330, looked up)
Delta-aminolevulinic acid …: MHHQSVLHSGYFHPLLRSWQTAASTVSASNLIYPIFVTDVPDDVQPIASLPGVARYGVNQLEEMLRPLVEAGLRCVLIFGVPSRVPKDEQGSAADSEDSPTIEAVRLLRKTFPSLLVACDVCLCPYTSHGHCGLLSENGAFLAEESRQRLAEVALAYAKAGCQVVAPSDMMDGRVEAIKAALLKHGLGNRVSVMSYSAKFASCFYGPFRDAAQSSPAFGDRRCYQLPPGARGLALRAVARDIQEGADMLMVKPGLPYLDMVREVKDKHPELPLAVYQVSGEFAMLWHGAQAGAFDLRTAVLETMTAFRRAGADIIITYFAPQLLKWLKEE
B9: Stxbp2 (protein, UniProt Q64324 1-593, looked up)
Syntaxin-binding protein 2: MAPLGLKAVVGEKILSGVIRSVKKDGEWKVLIMDHPSMRILSSCCKMSDILAEGITIVEDINKRREPIPSLEAIYLLSPTEKSVQALIADFQGTPTFTYKAAHIFFTDTCPEPLFSELGRSRLAKAVKTLKEIHLAFLPYEAQVFSLDAPHSTYNLYCPFRAGERGRQLDALAQQIATLCATLQEYPSIRYRKGPEDTAQLAHAVLAKLNAFKADTPSLGEGPEKTRSQLLIMDRAADPVSPLLHELTFQAMAYDLLDIEQDTYRYETTGLSESREKAVLLDEDDDLWVELRHMHIADVSKKVTELLKTFCESKRLTTDKANIKDLSHILKKMPQYQKELNKYSTHLHLADDCMKHFKGSVEKLCSVEQDLAMGSDAEGEKIKDAMKLIVPVLLDASVPPYDKIRVLLLYILLRNGVSEENLAKLIQHANVQSYSSLIRNLEQLGGTVTNSAGSGTSSRLERRERMEPTYQLSRWSPVIKDVMEDVVEDRLDRKLWPFVSDPAPVPSSQAAVSARFGHWHKNKAGVEARAGPRLIVYIVGGVAMSEMRAAYEVTRATEGKWEVLIGSSHILTPTRFLDDLKTLDQKLEGVALP

Tests used:
DYT-TOR1A MEF EVs = experiment: Quantitative LC-MS/MS proteomics of EVs from drug-treated DYT-TOR1A MEF cultures (ritonavir, salubrinal); format: cell-based, mouse; set-up: key to RTV Corrective Direction / RTV Corrective Direction, Grwd1 / RTV Corrective Direction, Srrm2 / RTV Corrective Direction, Rbm17 / RTV Corrective Direction, Dcaf8 / RTV Corrective Direction, Edil3 / RTV Corrective Direction, Timp3 / RTV Corrective Direction, Heatr3 / RTV Corrective Direction, Brd4 / RTV Corrective Direction, P3h4 / RTV Corrective Direction, Pacsin3 / RTV Corrective Direction, Naa50 / RTV Corrective Direction, Lpar6 / RTV Corrective Direction, Ndrg1 / RTV Corrective Direction, Kntc1 / RTV Corrective Direction, Cdk11b / RTV Corrective Direction, Sumo1 / RTV Corrective Direction, Lsm4 / RTV Corrective Direction, Hmga2 / RTV Corrective Direction, Cstf1 / RTV Corrective Direction, Tes / RTV Corrective Direction, Sbno1 / RTV Corrective Direction, Unc119b / RTV Corrective Direction, Cfdp1 / RTV Corrective Direction, Sec61b: YES = protein abundance effect opposite to DYT/WT; conditions: EV protein abundance; for RTV Corrective Direction: DYT + RTV (ritonavir) vs DYT, direction compared with DYT/WT; for DYT + RTV/DYT Cohen's d: ritonavir (RTV)-treated DYT vs DYT
WT MEF EVs = experiment: Quantitative LC-MS/MS proteomics of EVs from ISRIB-treated WT MEF cultures; format: cell-based, mouse; set-up: key to ISRIB and DYT Parallel Direction / ISRIB and DYT Parallel Direction, Ctdsp1 / ISRIB and DYT Parallel Direction, Pcdh19 / ISRIB and DYT Parallel Direction, Tspan7 / ISRIB and DYT Parallel Direction, Myo1e / ISRIB and DYT Parallel Direction, Plpp3 / ISRIB and DYT Parallel Direction, Sh3bp4 / ISRIB and DYT Parallel Direction, Dnajc7 / ISRIB and DYT Parallel Direction, Drg1 / ISRIB and DYT Parallel Direction, Maea: YES = protein abundance effect similar to DYT/WT; conditions: EV protein abundance; for WT + ISRIB/WT Cohen's d: ISRIB-treated WT vs WT; for ISRIB and DYT Parallel Direction: WT + ISRIB vs WT, direction compared with DYT/WT

| Molecule | RTV Corrective Direction (DYT-TOR1A MEF EVs) | DYT + RTV/DYT Cohen's d (DYT-TOR1A MEF EVs) | WT + ISRIB/WT Cohen's d (WT MEF EVs) | ISRIB and DYT Parallel Direction (WT MEF EVs) |
| --- | --- | --- | --- | --- |
| B1 | YES | 0.61 | −2.35 | YES |
| B2 | YES | 0.76 | −2.06 | YES |
| B3 | YES | 0.37 | 0.39 | YES |
| B4 | YES | 0.64 | 0.64 | YES |
| B5 | YES | 2.12 | −0.28 | YES |
| B6 | YES | 0.91 | −2.44 | YES |
| B7 | YES | −0.60 | 0.71 | YES |
| B8 | YES | 1.57 | −1.50 | YES |
| B9 | YES | 1.82 | −0.96 | YES |
